Starred links: 1 amine or outer side, 2 acyl side, 3 side chain; linkers in the order of their positions; H or OH if unused. Non-standard residues stand in square brackets, D forms with d. Residues, ends and D or L forms follow the SMILES beside them. Groups on a side chain read outwards from the residue. *: point of attachment. F(4amPEG2NHDOTA-Lu) = lutetium complex of (S)-2,2',2''-(10-(1-(4-(2-amino-2-carboxyethyl)phenyl)-3,12-dioxo-5,8-dioxa-2,11-diazatridecan-13-yl)-1,4,7,10-tetraazacyclododecane-1,4,7-triyl)triacetic acid (Phe with 4-aminomethyl-PEG2-DOTA-Lu), O=C([O-])CN1CCN(CC(=O)[O-])CCN(CC(=O)NCCOCCOCC(=O)NCc2ccc(C[C@H](N[*:1])C(=O)[*:2])cc2)CCN(CC(=O)[O-])CC1.[Lu+3]; COpipzaa = 4-(carboxymethyl)piperazine-1-carbonyl, O=C(O)CN1CCN(C(=O)*)CC1; DOTA(Lu) = O=C1CN2CCN3CCN(CC(=O)*)CCN(CC2)CC(=O)[O][Lu]([O]1)[O]C(=O)C3; DOTA = O=C(O)CN1CCN(CC(=O)O)CCN(CC(=O)*)CCN(CC(=O)O)CC1; Nicotinoyl(6-NMe3+) = C[N+](C)(C)c1ccc(C(=O)*)cn1; Phe(4-CH2NH2) = NCc1ccc(C[C@H](N)C(=O)O)cc1; Piperazinyl(4-CH2COOH) = O=C(O)CN1CCN(*)CC1; NMeF = CN[C@@H](Cc1ccccc1)C(=O)O; Ahp(2) = CCCCC[C@H](N)C(=O)O; hSer = N[C@@H](CCO)C(=O)O; AEEA = NCCOCCOCC(=O)O; CO = O=C([*:1])[*:2]; Propyl = CCC*

For test [1], the target named is T1, human FAP (Homo sapiens, UniProt Q12884).
T1 construct: the biotinylated His, Avi tag, human FAP (26-760, FAP-H82Q6); His; Avi tag (biotinylated); purchased AcroBiosystems FAP-H82Q6
T1 sequence (Q12884 26-760): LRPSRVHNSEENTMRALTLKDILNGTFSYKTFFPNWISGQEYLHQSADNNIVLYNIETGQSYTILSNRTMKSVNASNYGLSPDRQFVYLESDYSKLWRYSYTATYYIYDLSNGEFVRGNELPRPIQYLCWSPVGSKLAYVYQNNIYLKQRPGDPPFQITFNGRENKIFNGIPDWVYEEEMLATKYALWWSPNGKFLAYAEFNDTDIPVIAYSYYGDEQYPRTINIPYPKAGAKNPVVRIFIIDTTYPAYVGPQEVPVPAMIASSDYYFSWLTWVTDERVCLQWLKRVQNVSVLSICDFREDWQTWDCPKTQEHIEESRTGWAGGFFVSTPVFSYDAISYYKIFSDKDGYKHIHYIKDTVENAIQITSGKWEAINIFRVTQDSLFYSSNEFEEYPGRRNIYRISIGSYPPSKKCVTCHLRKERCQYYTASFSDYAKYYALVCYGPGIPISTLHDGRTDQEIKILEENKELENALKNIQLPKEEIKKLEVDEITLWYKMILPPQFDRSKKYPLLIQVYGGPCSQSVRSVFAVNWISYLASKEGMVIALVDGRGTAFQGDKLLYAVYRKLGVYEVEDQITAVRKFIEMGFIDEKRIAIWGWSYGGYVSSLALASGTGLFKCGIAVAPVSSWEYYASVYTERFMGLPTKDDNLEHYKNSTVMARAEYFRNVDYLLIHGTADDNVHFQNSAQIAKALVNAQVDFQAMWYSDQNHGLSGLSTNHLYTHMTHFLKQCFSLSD
Briefly: Surface plasmon resonance (SPR) for peptide affinity, human FAP. Format: binding. Conditions: read-out: h. FAP, SPR, KD. Here is the method:
Peptide affinities (KD) were determined by SPR using a Biacore™ 8K device (Cytiva) towards the following proteins: biotinylated His, Avi tag, human FAP (26-760, FAP-H82Q6), biotinylated His, Avi tag, mouse FAP (26-761, FAP-M82Q5), His tag, human DPP4 (34-766, DP4-H82E3), all purchased from AcroBiosystems and His tag, mouse DPP4 (29-760, 954-SE) from R&D Systems. The FAP proteins and their homologous were diluted to a concentration of 2 μg/mL into acetate buffer pH 5.5, then immobilized onto a CM5 sensorchip (Cytiva, BR-1005-30) to reach a response around 2000 R U. The running buffer HBS-EP+pH 7.6 (20× from Teknova CAT. No: H8022) contained 10 mM HEPES pH 7.6, 150 mM NaCl, 3 mM EDTA, 0.05% Tween20 and 2% DMSO. Experiments were carried out at 25° C. using a flow rate of 30 μL/min. Compounds were tested in single cycle kinetic mode at 8 different concentrations. Curve fitting was performed using the Biacore™ 8K evaluation software. The sensorgrams were fitted by applying a 1:1 binding model to calculate kinetic rate constants and equilibrium dissociation constants (KD).
For this assay, the setup had the same conditions (flow rate, running buffer, peptide dilution) as described above for the CM5 method. The oligo CAP reagent obtained in the CAPture Kit (Ref. 28920234) was 1/5 diluted into running buffer and used with a contact time of 300 s at a flow rate of 2 μL/min. The human and mouse FAP constructs described above were used (from AcroBiosystems or produced in house). The FAP proteins were diluted to a concentration of 2 μg/mL into acetate pH 5.5, 0.05% Tween20 and used with a contact time of 600 s at a flow rate of 10 μL/min. The peptides were tested with an association time of 280 s followed by a dissociation time of 3000 s at a flow rate of 30 μL/min. The regeneration was done using the regeneration solution (8 M guanidine-HCl, 1 M NaOH) as obtained with a contact time of 270 s at a flow rate of 10 μL/min. […] The compounds marked with an asterisk were tested against human and mouse DDP4.
On the technique in general: Surface plasmon resonance follows binding to a sensor surface in real time, without labels.

Test [2] deals with T1, human FAP. Nature of the test: Enzymatic FAP competition assay (Z-Gly-Pro-AMC fluorescence), human FAP. The class given is biochemical. Conditions: read-out: h. FAP, Enz., IC50. The method in brief: (§1)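 IC50 values come from curve fitting of duplicate % inhibition data on AMC fluorescence (ex 380, em 460 nm) after 4 h at 22-24° C with 50 μM Z-Gly-Pro-AMC. Beforehand, peptides up to 1 μM (14 levels) sat 24 h with 0.01 nM human (26-760) or mouse (26-761) tagged FAP in phosphate buffer pH 7.5, NaCl, Tween20, 1% DMSO.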

The target of test [3] is T2, mouse FAP (Mus musculus, UniProt P97321).
T2 construct: biotinylated His, Avi tag, mouse FAP (26-761, FAP-M82Q5); His; Avi tag (biotinylated); purchased AcroBiosystems FAP-M82Q5
T2 sequence (P97321 26-761): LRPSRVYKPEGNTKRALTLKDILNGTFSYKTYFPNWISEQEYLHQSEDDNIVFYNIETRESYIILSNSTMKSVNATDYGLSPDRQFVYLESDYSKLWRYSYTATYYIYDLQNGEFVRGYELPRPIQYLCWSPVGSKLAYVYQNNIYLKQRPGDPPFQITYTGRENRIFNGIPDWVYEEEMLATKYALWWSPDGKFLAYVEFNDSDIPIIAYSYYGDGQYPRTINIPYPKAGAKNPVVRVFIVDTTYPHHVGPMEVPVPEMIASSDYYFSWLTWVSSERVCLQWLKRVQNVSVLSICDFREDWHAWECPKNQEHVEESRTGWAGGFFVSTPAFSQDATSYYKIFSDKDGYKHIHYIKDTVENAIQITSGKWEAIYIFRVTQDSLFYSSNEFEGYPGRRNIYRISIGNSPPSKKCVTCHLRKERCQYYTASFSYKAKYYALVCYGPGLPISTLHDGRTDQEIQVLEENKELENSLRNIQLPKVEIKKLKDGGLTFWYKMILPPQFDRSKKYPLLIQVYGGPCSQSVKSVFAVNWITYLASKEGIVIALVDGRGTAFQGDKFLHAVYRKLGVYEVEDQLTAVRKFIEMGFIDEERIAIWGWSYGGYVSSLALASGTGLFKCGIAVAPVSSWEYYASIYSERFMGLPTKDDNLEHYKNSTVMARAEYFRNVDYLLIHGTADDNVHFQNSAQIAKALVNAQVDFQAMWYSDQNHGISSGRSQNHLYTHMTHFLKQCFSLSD
Nature of the test: Enzymatic FAP competition assay (Z-Gly-Pro-AMC fluorescence), mouse FAP. Format: biochemical. Conditions: read-out: m. FAP, Enz., IC50. In outline: as §1

The target of test [4] is T2, mouse FAP. Briefly: Surface plasmon resonance (SPR) for peptide affinity, mouse FAP. Format: binding. The method in brief:
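KD values come from a 1:1 kinetic fit of single-cycle SPR data: 8 peptide concentrations, 25 °C, 30 μL/min, HEPES-buffered saline pH 7.6 with 2% DMSO. Targets were His/Avi-tagged human (26-760) or mouse (26-761) FAP, amine-coupled to CM5 or held on a CAPture chip.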

As for “Lys(DOTA-Lu)-Gly-NMePhe-Tyr-Ahp-Trp-Gly-Tyr-Asp-D-Pro (cyclo(K(DOTA(Lu))G[NMeF]Y[Ahp(2)]WGYD[dP]); also: Lu complex) [Example C22]”, the Kd stood at 0.41 nM with human FAP [1] and 0.64 nM with mouse FAP [4]. Further, the figures for the IC50 with human FAP [2] and with mouse FAP [3] were 0.43 nM and 1.1 nM, respectively.
Consider `CCCOCC[C@@H]1NC(=O)[C@H](Cc2ccc(CNC(=O)COCCOCCNC(=O)c3ccc([N+](C)(C)C)nc3)cc2)NC(=O)[C@H](Cc2ccccc2)N(C)C(=O)CNC(=O)CNC(=O)[C@H]2CCCN2C(=O)[C@H](CC(=O)O)NC(=O)[C@H](CCCCNC(=O)N2CCN(CC(=O)O)CC2)NC(=O)CNC(=O)[C@H](Cc2c[nH]c3ccccc23)NC1=O` [Example C58] (cyclo(D[dP]GG[NMeF][Phe(4-CH2NH2)]([AEEA-Nicotinoyl(6-NMe3+)])[hSer](Propyl)WGK([CO-Piperazinyl(4-CH2COOH)]))), for which the dissociation constant (Kd) at human FAP [1] was under 0.007 nM; on mouse FAP [4] it was under 0.017 nM. Besides, the figures for the half-inhibitory concentration (IC50) at human FAP [2] and on mouse FAP [3] were 0.006 nM and 0.017 nM, respectively.
Taken in the same sequence, the figures for `CCCOCC[C@@H]1NC(=O)[C@H](Cc2ccc(CNC(=O)COCCOCCNC(=O)CN3CCN(CC(=O)O)CCN(CC(=O)O)CCN(CC(=O)O)CC3)cc2)NC(=O)[C@H](Cc2ccccc2)N(C)C(=O)CNC(=O)CNC(=O)[C@H]2CCCN2C(=O)[C@H](CC(=O)O)NC(=O)[C@H](CCCCNC(=O)N2CCN(CC(=O)O)CC2)NC(=O)CNC(=O)[C@H](Cc2c[nH]c3ccccc23)NC1=O` [Example B2, Gly-Gly-NMePhe-F(4ampEG2NHDOTA)-hS(Pr)-Trp-Gly-K(COpipzaa)-Asp-D-Pro] (cyclo(D[dP]GG[NMeF][Phe(4-CH2NH2)]([AEEA-DOTA])[hSer](Propyl)WGK([CO-Piperazinyl(4-CH2COOH)]))) were under 0.013 nM, under 0.022 nM, 0.007 nM and 0.018 nM.
Taken in the same sequence, the figures for “Gly-Gly-NMePhe-F(4amPEG2NHDOTA-Lu)-Ahp-Trp-Gly-K(COpipzaa)-Asp-D-Pro (cyclo(GG[NMeF][F(4amPEG2NHDOTA-Lu)][Ahp(2)]WGK(COpipzaa)D[dP]); also: Lu complex) [Example C13]” were under 0.011 nM, 0.024 nM, 0.004 nM and 0.011 nM.

The term Kd denotes a measure of binding affinity in units of concentration. Broadly, the IC50 is the concentration at which inhibition is half-maximal.
